Experimental findings from publication PMC4889959 (Nucleic Acids Research, 2016) are described below.

To fix the notation:
B1: SLX4BTB wild type, yeast two-hybrid fusion [human] / SLX4BTB wild type, yeast two-hybrid fusion [human] (parent)
chain 1: QDKHPDRGGRTLLSLGLLVADFGAMVNNPHLSDVQFQTDSGEVLYAHKFVLYARCPLLIQYVNNEGFSAVEDGVLTQRVLLGDVSTEAARTFLHYLYTADTGLPPGLSSELSSLAHRFGVSELVHLCEQVPIATDS
chain 2: B1 chain 1

Variants of B1 are the subject of the first test. As to the kind of experiment: yeast two-hybrid β-galactosidase assay. To be noted: with SLX4BTB wild type, ONPG as substrate, SLX4BTB-F681R-F708R-AD + SLX4BTB-BD, parent: 710, read off a plot.
chain 1 F22R F49R: the response (OD420 reading) amounted to 5.

Staying with this test, now noted: with SLX4BTB wild type, ONPG as substrate, SLX4BTB-F708R-AD + SLX4BTB-BD, parent: 710, read off a plot.
For chain 1 F49R, the response (OD420 reading) was found to be 5.5.
